Laboratory results reported in IntAct's records for PubMed 9687513.

B1: Early protein (Human adenovirus C serotype 5 (HAdV-5)), P03255-2 (parent)
chain: MRHIICHGGVITEEMAASLLDQLIEEVLADNLPPPSHFEPPTLHELYDLDVTAPEDPNEEAVSQIFPDSVMLAVQEGIDLLTFPPAPGSPEPPHLSRQPEQPEQRALGPVSMPNLVPEVIDLTCHEAGFPPSDDEDEEGPVSEPEPEPEPEPEPARPTRRPKMAPAILRRPTSPVSRECNSSTDSCDSGPSNTPPEIHPVVPLCPIKPVAVRVGGRRQAVECIEDLLNEPGQPLDLSCKRPRP

Variants of: B1
Settings: with kat2b_human KAT2B

Variant | effect of a mutation on the interaction
E55A;D56A;P57A;N58A;E59A;E60A | decreasing interaction
